From publication PMC3906126 come the findings set out here.

For orientation: Kd means the equilibrium constant for the complex coming apart. A high value points to lower affinity.

What all share (experiment): ITC
(In ITC the heat of successive injections is recorded.)

Assay [1] deals with WW1 domain of WWOX (residues 16–50) (human) (UniProt Q9NZC7).
For assay [2], the target named is WW1–WW2 tandem module of WWOX (residues 16–91) (human) (UniProt Q9NZC7).
Assay [3] deals with WW2W domain of WWOX (WW2 domain, residues 57–91, with the Y85W substitution) (human) (UniProt Q9NZC7).
WW2W domain of WWOX (WW2 domain, residues 57–91, with the Y85W substitution) (human), sequence (Q9NZC7 57-91 Y85W): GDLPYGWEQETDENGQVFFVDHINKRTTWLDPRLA

WW1 domain of WWOX (residues 16–50) (human), sequence (Q9NZC7 16-50): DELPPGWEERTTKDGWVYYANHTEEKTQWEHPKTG
WW1–WW2 tandem module of WWOX (residues 16–91) (human), sequence (Q9NZC7 16-91): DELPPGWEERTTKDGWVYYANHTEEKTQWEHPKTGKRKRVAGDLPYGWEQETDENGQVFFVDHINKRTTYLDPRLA

On to “PY3_A−2 (ErbB4_PY3 peptide with alanine at position −2)”, for which, in assay [1], the Kd amounted to 151 µM and the dH is -25.9 kJ/mol.
Take “ErbB4_PY3 peptide (12-mer spanning the PY3 PPXY motif of the ICD of ErbB4)”: the equilibrium dissociation constant (Kd) came to 144 µM in assay [1], 68 µM in assay [2] and 54 µM in assay [3]. Besides, the dH in assay [1] is -26 kJ/mol; in assay [3], -17.4 kJ/mol.
In assay [1], “PY3_A−1 (ErbB4_PY3 peptide with alanine at position −1)” returned a Kd of 161 µM and a dH of -13.9 kJ/mol.
As for “PY3_A−3 (ErbB4_PY3 peptide with alanine at position −3)”, in assay [1], the Kd was found to be 113 µM and the dH is -15.4 kJ/mol.
The like results for “PY3_A+4 (ErbB4_PY3 peptide with alanine at position +4)” were, in that order, 275 µM and -16.8 kJ/mol.
Take “PY3_A+5 (ErbB4_PY3 peptide with alanine at position +5)”: in assay [1], the Kd amounted to 157 µM and the dH was -47.7 kJ/mol.
The like results for “PY3_A+2 (ErbB4_PY3 peptide with alanine at position +2)” were, in that order, 287 µM and -15.2 kJ/mol.
The like results for “PY3_A+6 (ErbB4_PY3 peptide with alanine at position +6)” were, in that order, 135 µM and -20 kJ/mol.
